In assay [1] the target is BAFF (R&D Systems, 7537-BF) (UniProt Q9Y275 134-285). The assay is described as follows: cell-based or functional assay.
Assay [2] has as its target T1, human BAFF (10056-HNCH, Sino biological) (human, UniProt Q9Y275 134-285).
T1 construct: Bought protein
The assay is described as follows: competition ELISA: biotin-labeled BAFF to coated BAFF-R. In a few lines: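 Receptor coated at 2 μg/mL in PBS pH 7.4 overnight at 4° C and casein-blocked; fixed-concentration biotinylated ligand preincubated 30 min at 37° C with serially diluted antibody/fusion protein, then bound 1.5 h at 37° C. Streptavidin-HRP/TMB read at 450 nm; IC₅₀ from fitted binding-inhibition curves.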
Background: ELISA stands for enzyme-linked immunosorbent assay.

For assay [3], the target named is T1, human BAFF (10056-HNCH, Sino biological). In words: competition ELISA: BAFF-R coated on the plate, biotin-labelled BAFF at a fixed concentration pre-incubated with the diluted sample, streptavidin-HRP, OD450 (blocked ligand-receptor pair: BAFF/BAFF-R). The procedure:
(§1) A receptor protein was diluted to 2 μg/mL with PBS at pH 7.4 (BasalMedia, B320) and added to a 96-well microplate (Corning, 3590) at 100 μL/well. The plate was incubated at 4° C. overnight. After the liquid was discarded, 200 μL of 1% Casein blocking solution (Thermo, 37528) was added to each well for blocking, and the plate was incubated at 37° C. for 2 h. After the blocking was completed, the blocking solution was discarded, and the plate was washed 3 times with a PBST buffer (PBS at pH 7.4 containing 0.1% tween-20) for later use. A biotin-labeled ligand protein at a fixed concentration was mixed with the antibody or fusion protein diluted in gradient, pre-incubated at 37° C. for 30 min, and added to a blocked microplate. The plate was incubated at 37° C. for 1.5 h. After the incubation was completed, the plate was washed 3 times with PBST. 100 μL of streptavidin-HRP (Invitrogen, 434323, diluted at a ratio of 1:4000) was added to each well, and the plate was incubated at 37° C. for 1 h. The supernatant was removed, and the plate was washed 3 times with PBST. […] The plate was read for absorbance values at 450 nm on a microplate reader, the curves for the inhibition of the binding of the ligands to the receptors were fitted with software, and the IC₅₀ values were calculated. […]

Assay [4] has the same target. In words: competition ELISA: biotin-labeled BAFF to coated BCMA. The procedure: as §1
For assay [5], the target named is T2, mouse APRIL (7907-AP/CF, R&D Systems) (mouse, UniProt Q9D777 96-241, limits assumed).
T2 construct: Bought protein
T2 sequence (looked up): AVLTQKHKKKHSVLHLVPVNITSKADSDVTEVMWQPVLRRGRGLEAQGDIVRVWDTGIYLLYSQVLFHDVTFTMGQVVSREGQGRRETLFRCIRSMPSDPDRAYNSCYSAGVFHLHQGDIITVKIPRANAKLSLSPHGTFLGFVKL
In words: SPR (Biacore), sample captured on Protein A, antigen flowed, 1:1 fit.

Assay [6] concerns the target T3, cynomolgus monkey APRIL (APR-CM410B, Kactus) (cynomolgus monkey).
T3 chain: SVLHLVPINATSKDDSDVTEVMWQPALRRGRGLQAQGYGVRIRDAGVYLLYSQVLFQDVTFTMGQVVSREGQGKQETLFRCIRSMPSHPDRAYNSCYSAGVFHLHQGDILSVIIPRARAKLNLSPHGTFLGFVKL
The assay is described as above.

Assay [7] concerns the target T4, human APRIL (5860-AP-010/CF, R&D Systems) (human, UniProt O75888 115-250, limits assumed).
T4 construct: Bought protein
T4 sequence (looked up): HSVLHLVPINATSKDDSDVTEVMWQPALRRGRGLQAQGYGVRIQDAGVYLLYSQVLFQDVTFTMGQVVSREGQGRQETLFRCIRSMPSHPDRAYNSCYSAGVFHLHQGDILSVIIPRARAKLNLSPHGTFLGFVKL
The assay is described as above.

B1: RCT-18 (Telitacicept) (Fc fusion)
chain: SRVDQEERFPQGLWTGVAMRSCPEEQYWDPLLGTCMSCKTICNHQSQRTCAAFCRSLSCRKEQGKFYDHLLRDCISCASICGQHPKQCAYFCENKLRSPVNLPPELDKTHTCPPCPAPEAEGAPSVFLFPPKPKDTLMISRTPEVTCVVVDVSHEDPEVKFNWYVDGVEVHNAKTKPREEQYNSTYRVVSVLTVLHQDWLNGKEYKCKVSNKALPSSIEKTISKAKGQPREPQVYTLPPSRDELTKNQVSLTCLVKGFYPSDIAVEWESNGQPENNYKTTPPVLDSDGSFFLYSKLTVDKSRWQQGNVFSCSVMHEALHNHYTQKSLSLSPGK
notes: Positive control; TACI part is positions 13-118 of the extracellular region of human TACI, the rest is Fc
One may read the IC50 as the concentration needed to halve the response being measured. Broadly, the Kd is the concentration at which binding is half-saturated. Usually koff stands for the first-order rate constant of dissociation. For orientation: kon means the rate constant with which the complex forms. Consider B1, for which the “IC50 (nM) for the inhibition of the BAFF-induced B cell proliferation” value in assay [1] stood at 0.386 nM. For the same molecule, the IC50 in assay [2] came to 27.5 nM; in assay [4] it was 0.973 nM. In assay [3], the “IC50 (read off the curve)” value is roughly 3 nM. In addition, the figures for the Kd in assay [5], in assay [6] and in assay [7] were 0.00671 nM, 0.0436 nM and 0.0281 nM, respectively. The koff turned out to be 1.69e-05 s⁻¹ in assay [5], 0.000507 s⁻¹ in assay [6] and 0.000658 s⁻¹ in assay [7]. Further, the kon in assay [5] stood at 2.52e+06 M⁻¹ s⁻¹; in assay [6] it was 1.16e+07 M⁻¹ s⁻¹; in assay [7], 2.34e+07 M⁻¹ s⁻¹.

The record behind these values is patent US20240301031A1 (JIANGSU HENGRUI PHARMACEUTICALS, published 2024).
